Results from IntAct's records for PubMed 22770221.

B1: 14-3-3 protein epsilon (Rattus norvegicus (Rat)), P62260 (parent)
chain: MDDREDLVYQAKLAEQAERYDEMVESMKKVAGMDVELTVEERNLLSVAYKNVIGARRASWRIISSIEQKEENKGGEDKLKMIREYRQMVETELKLICCDILDVLDKHLIPAANTGESKVFYYKMKGDYHRYLAEFATGNDRKEAAENSLVAYKAASDIAMTELPPTHPIRLGLALNFSVFYYEILNSPDRACRLAKAAFDDAIAELDTLSEESYKDSTLIMQLLRDNLTLWTSDMQGDGEEQNKEALQDVEDENQ
partner: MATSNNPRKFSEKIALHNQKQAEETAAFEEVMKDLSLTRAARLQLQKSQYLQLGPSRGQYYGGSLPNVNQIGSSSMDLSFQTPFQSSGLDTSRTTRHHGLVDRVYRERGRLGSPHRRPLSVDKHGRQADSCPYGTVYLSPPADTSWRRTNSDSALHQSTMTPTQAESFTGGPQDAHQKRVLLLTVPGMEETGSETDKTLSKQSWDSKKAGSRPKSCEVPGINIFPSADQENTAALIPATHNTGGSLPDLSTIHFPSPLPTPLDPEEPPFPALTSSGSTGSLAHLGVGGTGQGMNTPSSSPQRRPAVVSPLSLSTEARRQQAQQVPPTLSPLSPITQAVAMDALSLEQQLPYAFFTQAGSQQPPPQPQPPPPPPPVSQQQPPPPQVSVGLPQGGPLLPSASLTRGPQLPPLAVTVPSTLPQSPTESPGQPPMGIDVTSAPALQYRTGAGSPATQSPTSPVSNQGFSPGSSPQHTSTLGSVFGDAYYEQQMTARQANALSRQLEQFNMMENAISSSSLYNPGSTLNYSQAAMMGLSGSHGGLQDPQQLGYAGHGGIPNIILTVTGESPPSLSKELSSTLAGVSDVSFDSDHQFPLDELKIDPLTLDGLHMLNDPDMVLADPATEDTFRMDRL

Variants of: B1
Conditions: with crtc1_rat Crtc1, Q157S1

Variant	effect of a mutation on the interaction
MDDREDLVYQAKLAEQAERYDEMVESMKKVAGMDVELTVEERNLLSVAYENVIGARRASWRIISSIEQKEENKGGEDKLKMIREYRQMVETELKLICCDILDVLDKHLIPAANTGESKVFYYKMKGDYHRYLAEFATGNDRKEAAENSLVAYKAASDIAMTELPPTHPIRLGLALNFSVFYYEILNSPDRACRLAKAAFDDAIAELDTLSEESYKDSTLIMQLLRDNLTLWTSDMQGDGEEQNKEALQDVEDENQ [K50E]	decreasing interaction strength
